The record followed here is article doi:10.1101/2021.03.28.437443.

The target of this assay is uncleaved full-length membrane-anchored HIV-1 JR-FL Env(-) glycoprotein (HIV-1 (strain JR-FL)). Description: cryo-EM structure.

Usually stoichiometry N stands for a count of units in the complex or per binding partner. The substance “uncleaved full-length membrane-anchored HIV-1 JR-FL Env(-) glycoprotein (natural protein)” showed a stoichiometry N of 3.
